Patent US20250043302A1, “MUTATED HYDROXYPHENYLPYRUVATE DIOXYGENASE POLYPEPTIDE, AND CODING GENE AND USE THEREOF” (BEIJING DABEINONG BIOTECHNOLOGY CO., LTD., priority 2021, published 2025)

Tested on: Arabidopsis thaliana T1 plants
Experiment: Mesotrione tolerance of transgenic Arabidopsis thaliana T1 plants (spray, bleached leaf area grade, damage score)
Type: in vivo
Parameters: Scores: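 damage score 0-100 computed as Σ(N×S)/(T×M)×100 over grades 0-3 with higher meaning more damage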
Conditions: for Classification and statistics of the grade of pesticide damage: Grade 0 / Classification and statistics of the grade of pesticide damage: Grade 1 / Classification and statistics of the grade of pesticide damage: Grade 2 / Classification and statistics of the grade of pesticide damage: Grade 3: number of plants
Summary of the method: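 Damage was assessed by bleaching grade (0 none; 1 <50%; 2 >50%; 3 100% of leaf area) one week after spraying. Sprays on 18-day-old T1 and wild-type plants used field-rate multiples: topramezone 25–200, isoxaflutole 35–280, mesotrione 52.5–420 g ai/ha.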

[1] = mesotrione 210 g ai/ha (two-fold field concentration), 7 DAT, Table 3
[2] = mesotrione 210 g ai/ha, number of plants in grade
[3] = mesotrione 420 g ai/ha (4×), 7 DAT, Table 3
[4] = mesotrione 420 g ai/ha, number of plants in grade

B1: AsHPPD-02: nucleotide sequence encoding Avena sativa wild-type HPPD; vector DBN11727 (nucleic acid)
DNA: ATGCCACCTACTCCAGCTACAGCTACTGGTGCTGCTGCTGCTGCCGTTACTCCTGAGCACGCTGCCAGGTCATTCCCCAGGGTGGTTCGCGTGAACCCCAGATCTGATAGGTTCCCAGTTCTGAGCTTCCACCATGTTGAGCTGTGGTGCGCTGATGCTGCTTCTGCTGCTGGCAGGTTCTCTTTCGCTCTTGGTGCTCCACTCGCTGCTAGATCTGATCTGTCTACAGGAAATAGCGCTCATGCCTCACTCCTGCTTCGCTCAGGTGCTTTGGCCTTCCTCTTCACCGCTCCATATGCTCCCCCACCTCAGGAGGCTGCTACTGCTGCTGCTACAGCCTCCATTCCAAGCTTCTCAGCTGATGCCGCTAGAACCTTCGCTGCTGCTCATGGACTTGCCGTGAGGTCTGTTGGTGTTCGCGTGGCTGATGCTGCTGAGGCTTTCAGAGTTTCCGTTGCCGGCGGAGCTAGGCCAGCTTTCGCTCCTGCTGATTTGGGACATGGTTTCGGCCTGGCTGAGGTTGAGCTTTACGGTGACGTGGTTCTCCGCTTCGTGTCTTACCCAGATGAGACTGACCTGCCTTTCCTTCCCGGCTTCGAGAGAGTTTCCTCTCCTGGTGCCGTGGATTACGGCCTGACAAGGTTCGACCACGTGGTTGGAAACGTTCCCGAGATGGCTCCAGTGATCGATTACATGAAGGGCTTCCTTGGATTCCATGAGTTCGCCGAGTTCACTGCTGAGGACGTGGGAACCACTGAGTCCGGTTTGAACTCTGTGGTTCTCGCCAACAATTCTGAGGCTGTTTTGCTCCCTCTGAATGAGCCTGTGCATGGAACCAAGAGGAGAAGCCAGATTCAAACTTACCTGGAGTACCACGGTGGCCCTGGAGTTCAGCATATCGCCCTTGCTTCTAATGATGTGTTGCGCACACTCAGAGAGATGCGCGCCAGAACCCCCATGGGAGGTTTCGAGTTCATGGCCCCACCACAGGCTAAGTACTACGAGGGCGTTAGAAGGATTGCTGGAGACGTGTTGAGCGAGGAGCAGATCAAGGAGTGCCAAGAGCTGGGTGTTCTTGTGGATAGGGATGACCAGGGCGTTCTGCTTCAAATTTTCACTAAGCCAGTGGGCGACCGCCCTACATTCTTCCTTGAGATGATTCAAAGAATCGGCTGCATGGAGAAGGATGAGGTTGGACAGGAGTACCAAAAGGGCGGATGCGGTGGCTTCGGAAAGGGTAACTTCAGCGAGTTGTTCAAGTCAATCGAGGACTACGAGAAGAGCCTCGAGGTGAAGCAGTCAGTGGTTGCCCAAAAGTCCTGA
modifications: AsHPPD-02 Nucleotide Sequence
notes: vector DBN11727
Table 9, mesotrione 210 g ai/ha (2×)
  Resistance evaluation: Non-resistant
Table 9, mesotrione 210 g ai/ha (2×), number of plants at grade 0
  Classification and statistics of the grade of pesticide damage Grade 0: 0
Table 9, mesotrione 210 g ai/ha (2×), number of plants at grade 1
  Classification and statistics of the grade of pesticide damage Grade 1: 0
Table 9, mesotrione 210 g ai/ha (2×), number of plants at grade 2
  Classification and statistics of the grade of pesticide damage Grade 2: 0
Table 9, mesotrione 210 g ai/ha (2×), number of plants at grade 3
  Classification and statistics of the grade of pesticide damage Grade 3: 16
Table 9, mesotrione 210 g ai/ha (2×), pesticide damage score
  Scores: 100
Table 9, mesotrione 420 g ai/ha (4×)
  Resistance evaluation: Non-resistant
Table 9, mesotrione 420 g ai/ha (4×), number of plants at grade 0
  Classification and statistics of the grade of pesticide damage Grade 0: 0
Table 9, mesotrione 420 g ai/ha (4×), number of plants at grade 1
  Classification and statistics of the grade of pesticide damage Grade 1: 0
Table 9, mesotrione 420 g ai/ha (4×), number of plants at grade 2
  Classification and statistics of the grade of pesticide damage Grade 2: 0
Table 9, mesotrione 420 g ai/ha (4×), number of plants at grade 3
  Classification and statistics of the grade of pesticide damage Grade 3: 16
Table 9, mesotrione 420 g ai/ha (4×), pesticide damage score
  Scores: 100
Table 12, mesotrione 210 g ai/ha (2×)
  Resistance evaluation: Non-resistant
Table 12, mesotrione 210 g ai/ha (2×), number of plants at grade 0
  Classification and statistics of the grade of pesticide damage Grade 0: 0
Table 12, mesotrione 210 g ai/ha (2×), number of plants at grade 1
  Classification and statistics of the grade of pesticide damage Grade 1: 0
Table 12, mesotrione 210 g ai/ha (2×), number of plants at grade 2
  Classification and statistics of the grade of pesticide damage Grade 2: 0
Table 12, mesotrione 210 g ai/ha (2×), number of plants at grade 3
  Classification and statistics of the grade of pesticide damage Grade 3: 16
Table 12, mesotrione 210 g ai/ha (2×), pesticide damage score
  Scores: 100
Table 12, mesotrione 420 g ai/ha (4×)
  Resistance evaluation: Non-resistant
Table 12, mesotrione 420 g ai/ha (4×), number of plants at grade 0
  Classification and statistics of the grade of pesticide damage Grade 0: 0
Table 12, mesotrione 420 g ai/ha (4×), number of plants at grade 1
  Classification and statistics of the grade of pesticide damage Grade 1: 0
Table 12, mesotrione 420 g ai/ha (4×), number of plants at grade 2
  Classification and statistics of the grade of pesticide damage Grade 2: 0
Table 12, mesotrione 420 g ai/ha (4×), number of plants at grade 3
  Classification and statistics of the grade of pesticide damage Grade 3: 16
Table 12, mesotrione 420 g ai/ha (4×), pesticide damage score
  Scores: 100
In vivo
  tolerance to mesotrione (in words): no tolerance
Mesotrione 210 g ai/ha
  Resistance evaluation: Non-resistant
  Scores: 100
[1]
  Resistance evaluation: non-resistant (non-resistant plants (scores 68-100))
  Classification and statistics of the grade of pesticide damage: Grade 0: 0
  Classification and statistics of the grade of pesticide damage: Grade 1: 0
  Classification and statistics of the grade of pesticide damage: Grade 2: 0
  Classification and statistics of the grade of pesticide damage: Grade 3: 16
[2]
  Classification and statistics of the grade of pesticide damage Grade 0: 0
  Classification and statistics of the grade of pesticide damage Grade 1: 0
  Classification and statistics of the grade of pesticide damage Grade 2: 0
  Classification and statistics of the grade of pesticide damage Grade 3: 16
Mesotrione 420 g ai/ha
  Resistance evaluation: Non-resistant
  Scores: 100
[3]
  Resistance evaluation: non-resistant (non-resistant plants (scores 68-100))
  Classification and statistics of the grade of pesticide damage: Grade 0: 0
  Classification and statistics of the grade of pesticide damage: Grade 1: 0
  Classification and statistics of the grade of pesticide damage: Grade 2: 0
  Classification and statistics of the grade of pesticide damage: Grade 3: 16
[4]
  Classification and statistics of the grade of pesticide damage Grade 0: 0
  Classification and statistics of the grade of pesticide damage Grade 1: 0
  Classification and statistics of the grade of pesticide damage Grade 2: 0
  Classification and statistics of the grade of pesticide damage Grade 3: 16
Pesticide damage score 0-100, mesotrione 210 g ai/ha (two-fold field concentration), 7 DAT, Table 3
  Scores: 100
Pesticide damage score 0-100, mesotrione 420 g ai/ha (4×), 7 DAT, Table 3
  Scores: 100
